This passage reports Average IC50, neutralization of TNF-α cytotoxicity on L929 cells and ND50 (L929 cell survival, neutralisation of TNF-α cytotoxicity) results from patent US20060024308A1.

The target of test [1] is human TNF-α (human) (UniProt P01375). In words: cell-based or functional assay.
For test [2] the target is unchanged.

Chain of human TNF-α (human) (P01375 77-233 limits assumed): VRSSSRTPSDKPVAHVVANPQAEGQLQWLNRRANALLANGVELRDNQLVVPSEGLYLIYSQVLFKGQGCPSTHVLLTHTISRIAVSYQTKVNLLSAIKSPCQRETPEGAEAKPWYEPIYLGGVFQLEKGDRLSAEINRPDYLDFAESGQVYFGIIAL

In turn, Humira (IgG1) (antibody) displayed an Average IC50, neutralization of TNF-α cytotoxicity on L929 cells with human TNF-α (human) [1] of 0.023 nM. The substance also came in with an ND50 (L929 cell survival, neutralisation of TNF-α cytotoxicity) in the test with human TNF-α (human) [2] of 28 pM.
